Reference: paper PMC10540840, “PET imaging with [^68Ga]-labeled TGFβ-targeting peptide in a mouse PANC-1 tumor model” (Frontiers in Oncology, 2023)
Ends that are not written are not given here. * marks the point of attachment. DOTA = O=C(O)CN1CCN(CC(=O)O)CCN(CC(=O)*)CCN(CC(=O)O)CC1; PEG (n : 3) = short polyethylene glycol linker, n = 3

Biological target: Transforming growth factor β (human (endogenous in PANC-1))
Sequence (P01137 279-390): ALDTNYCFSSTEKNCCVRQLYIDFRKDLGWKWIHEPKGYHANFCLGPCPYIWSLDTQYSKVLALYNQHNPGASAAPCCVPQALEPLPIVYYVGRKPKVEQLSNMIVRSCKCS

tumor uptake (%ID/g-mean) of [^68Ga]Ga-P144 by microPET at 1 h in PANC-1 tumor-bearing mice, unblocked group (n = 4): 5.36 %ID/g-mean
Binder: {DOTA-PEG (n : 3)}-TSLDASIWAMMQNA (also: [68Ga] chelated by the DOTA) [[^68Ga]Ga-DOTA-P144]
